Data: patent US20210292393A1 (published 2021)

Assays:
[1] = biological target: SARS-CoV-2 spike protein (wild type), spike protein trimer (SARS-CoV-2, UniProt P0DTC2 14-1208)
[2] = biological target: SARS-CoV-2 full-length spike protein on pseudotyped lentivirus (SARS-CoV-2, UniProt P0DTC2 14-1273); test: cell-based or functional assay
[3] = biological target: spike protein of SARS-CoV-2 clinical isolate USA/WA/1/2020 (live virus) (SARS-CoV-2, UniProt P0DTC2 14-1273); test: cell-based or functional assay
[4] = biological target: SARS-CoV-2 full length spike protein (wild type), expressed on the surface of transiently transfected CHO … (SARS-CoV-2, UniProt P0DTC2 14-1273)
[5] = biological target: SARS-CoV-2 full length spike protein (wild type), conjugated to beads (SARS-CoV-2, UniProt P0DTC2 14-1208)

B1: anti-SARS-CoV-2 antibody 1081 (antibody, V domains shown)
VH: EVQLVQSGAEVKKPGESLKISCKRSGYSFTTYWIGWVRQMPGKGLEWMGSIYPGDSDTRYSPSFQGQVTISADKSISTAYLQWSSLKASDTAMYYCASQEVPGYYYYMDVWGKGTTVTVSS
VL: DIQMTQSPSSLSASVGDRVTITCRASQSISSYLHWYQQKPGKAPKLLIYAASSLQSGVPSRFSGSGSGTDFTLTISSLQPEDFATYYCQQTYSTHTWTFGQGTKVEIK
Kd [1]: 0.093 nM | Pseudo-neutralization IC50 [2]: 0.012 µg/mL | Live Virus Neutralization IC50 [3]: 4.6 µg/mL

B2: anti-SARS-CoV-2 antibody 1075 (antibody, V domains shown)
VH: QVQLVQSGAEVKKPGASVKVSCKVSGYTLIELSMHWVRQAPGKGLEWMGGFDPEDGETIYAQKFQGRVTMTEDTSTDTAYMELSSLRSEDTAVYYCATEWAYYGSGSYLGYWGQGTLVTVSS
VL: EIVMTQSPATLSVSPGERATLSCRASQSVSSNLAWFQQKPGQAPRLLIYGASTRVTVIPARFSGSGSGTEFTLTISSLQSEDFAVYYCQQYNNWPRTFGQGTKVEIK
Kd [1]: 0.093 nM | Pseudo-neutralization IC50 [2]: 0.039 µg/mL | Live Virus Neutralization IC50 [3]: 0.011 µg/mL

B3: anti-SARS-CoV-2 antibody 1027 (antibody, V domains shown)
VH: EVQLVESGGGLVQPGGSLRLSCAASGFTVSSNYMSWVRQAPGKGLEWVSIIYSGGSTFYADSVKGRFTISRDSSKNTLYLQMSSLRAEDTAVYYCARDLDYYGMDVWGQGTTVTVSS
VL: DIQLTQSPSFLSAPVGDRVTITCRASQGISSYLAWYQQKPGKAPKLLIYGASTLQSGVPSRFSGSGSGTEFTLTISSLQPEDFATYYCQQLNSYQRFTFGPGTKVEIK
Kd [1]: 0.205 nM | Pseudo-neutralization IC50 [2]: 0.01 µg/mL | Live Virus Neutralization IC50 [3]: 0.005 µg/mL

B4: antibody 482 (antibody, V domains shown)
VH: EVQLVESGGGLVQPGGSLRLSCAASGFTFSSYWMTWVRQAPGKGLEWVANIKQDGSEKYYVDSVKGRFTISRDNAKNSLYLQMNSLRAEDTAVYYCARGVGSWYLGFDYWGQGTLVTVSS
VL: NFMLTQPHSVSESPGKTVTISCTGSSGSIASNYVQWYQQRPGSAPTTVIYEDNQRPSGVPDRFSGSIDSSSNSASLTISGLKTEDEADYYCQSYDGSSYVFGTGTKVTVL
median fluorescence intensity, fold over isotype control [4]: 2.31 fold over isotype

B5: anti-SARS-CoV-2 antibody 1000 (antibody, V domains shown)
VH: EVQLVESGGGLVQPGRSLRLSCAASGFTFDDYAMHWVRQAPGEGLEWVSGISWNSGSIGYADSVKGRFTISRDNAKNSLYLQMNSLRAEDTALYYCAKDTRFSFGTIAAAVSGYGMDVWGQGTTVTVSS
VL: QSALTQPASVSGSPGQSITISCTGTSSDVGIFNLVSWYQQHPGKAPKLMIYEVTKRPSGVSNRFSGSKSGNTASLTISGLQAEDEADYYCCSYAGSYVFGTGTKVTVL
Kd [1]: 0.092 nM | Pseudo-neutralization IC50 [2]: 0.006 µg/mL | Live Virus Neutralization IC50 [3]: 0.013 µg/mL

B6: anti-SARS-CoV-2 antibody 1091 (antibody, V domains shown)
VH: EVQLVESGGGLVKPGGSLRLSCAASGFPFITYSMNWVRQAPGKGLEWVSSISRNSDYIYYADSVRGRVTISRDNAENSLYLQMHSLRAEDTAVYYCARDVVRSGNYYIPRHGMDVWGRGTTVTVSS
VL: QSVLTQPPSASGTPGQRVTISCSGTSSNIGSNTVNWYQQLPETAPKLLIYGTDQRPSGVPDRFSGSKSGTSASLAISRLQSEDEADYYCATRDDSLSGPVFGGGTQLTVL
Kd [1]: 0.054 nM | Pseudo-neutralization IC50 [2]: 0.016 µg/mL | Live Virus Neutralization IC50 [3]: 0.074 µg/mL

B7: antibody 475 (antibody, V domains shown)
VH: QVQLVESGGGVVQPGRSLRLSCAASGFTFSSYAMHWVRQAPGKGLEWVTFISHEGSNKYYADSVKGRFTISRDNSKNTLYLQMNSLRAEDTAVYYCARTFEYSSSSATGDFDYWGQGTLVTVSS
VL: QSVLTQPPSVSGAPGQRVTISCTGSSSNIGAGYDVHWYQQLPGTAPKLLIYGNSNRPSGVPDRFSGSKSGTSASLAITGLQAEDEADYYCQSYDSSLSGVVFGGGTKLTVL
median fluorescence intensity, fold over isotype control [4]: 32.2 fold over isotype

B8: antibody 456 (antibody, V domains shown)
VH: QVQLQQWGAGLLKPSETLSLTCAVYGGSFSGYYWSWIRQPPGKGLEWIGEINHSGSTNYNPSLKSRVTISVDTSKNQFSLKLSSVTAADTAVYYCARDGSGSYYLSYYFDYWGQGTLVTVSS
VL: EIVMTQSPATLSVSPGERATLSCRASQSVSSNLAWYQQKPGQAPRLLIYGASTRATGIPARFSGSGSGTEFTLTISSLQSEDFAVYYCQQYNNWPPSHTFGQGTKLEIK
median fluorescence intensity, fold over isotype control [4]: 9.25 fold over isotype

B9: antibody 365 (antibody, V domains shown)
VH: QVQLVESGGGVVQPGRSLRLSCAASGFNLSSYAMHWVRQASGKGLEWVSLISYDGSIKYYTDSVKGRFTVSGDNSKNTLFLQMNSLRPDDSALYYCVRGGVSGPNSFDMWGQGTTVTVSS
VL: DVVMTQSPLSLPVTLGQPASISCRSSQSLVYSDGNTYVNWFQQRPGQSPRRLIYKVSIRASGVPDRFSGSGSGTDFALKISRVEAEDVGVYYCMQGTHWPVTFGQGTKVEIK
binding signal, bead assay [5]: 533 fold over isotype

B10: anti-SARS-CoV-2 antibody 1012 (antibody, V domains shown)
VH: EVQVVESGGGLVQPGGSRRLSCTASGFTLRNYWMSWVRQAPGKGLEWVANIKQDGSEKYYVDSVKGRFTISRDNAKNSLYLQMDSLRAEDTAVYYCARGGRYCPGGSCPRWGRGTLVTVSS
VL: DIQMTQSPSSLSASVGDRVTITCQASQDISNFLNWYQLKPGEAPTLLIFDASKLETGVPSRFSGTGFGTDFTFTISSLQPEDTATYYCQQYDDLTSITLGQGTRLEIK
Kd [1]: 0.139 nM | Pseudo-neutralization IC50 [2]: 0.006 µg/mL | Live Virus Neutralization IC50 [3]: 0.028 µg/mL

B11: antibody 439 (antibody, V domains shown)
VH: QVQLVESGGGVVQPGRSLRLSCAASGFTFSSYAMHWVRQAPGKGLEWVAVISYDGSNKYYADSVKGRFTISRDNSKNTLYLQMNSLRAEDTAVYYCARPPRGGSYYPFDPWGQGTLVTVSS
VL: not shown
median fluorescence intensity, fold over isotype control [4]: 8.2 fold over isotype

B12: antibody 480 (antibody, V domains shown)
VH: QVQLVESGGGVVQPGRSLRLSCAASGFTFSSYAMHWVRQAPGKGLEWVAVISYDGNNKYYADSVKGRFTISRDNSKNTLYLQMNSLRAEDTAVYYCVRTNSGSYYAAFDYWGQGTLVTVSS
VL: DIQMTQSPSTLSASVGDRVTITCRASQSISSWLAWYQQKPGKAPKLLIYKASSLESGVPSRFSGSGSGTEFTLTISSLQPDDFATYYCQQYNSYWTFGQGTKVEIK
median fluorescence intensity, fold over isotype control [4]: 9.77 fold over isotype

B13: antibody 446 (antibody, V domains shown)
VH: QVQLVESGGGVVQPGRSLRLSCAASGFTFSSYAMHWVRQAPGKGLEWVAVISYDGSNKYYADSVKGRFTISRDNSKNTLYLQMNSLRAEDTAVYYCARPNSGSYFGYFQHWGQGTLVTVSS
VL: QSVLTQPPSVSGAPGQRVTISCTGSSSNIGAGYDVHWYQQLPGTAPKLLIYGNSNRPSGVPDRFSGSKSGTSASLAITGLQAEDEADYYCQSYDSSLSGFYVFGTGTKVTVL
median fluorescence intensity, fold over isotype control [4]: 7.99 fold over isotype

B14: anti-SARS-CoV-2 antibody 1015 (antibody, V domains shown)
VH: EVQLVESGGGLVQPGGSLRLSCAASGFTFSSYWMHWVRQAPGKGLVWVSHINSDGSSTSYADSVKGRFTISRDNAKNTLYLQMNSLRAEDTAVYYCARGLRYFDLDVWGQGTTVTVSS
VL: QSVLTQPPSVSEAPRQRVTISCSGSSSNIGNNAVNWYQQLPGKAPKLLIFYDDLLPSGVSDRFSGSKSGTSASLAISGLQSEDEADYYCAAWDDSLNGGVFGGGTKLTVL
Kd [1]: 0.096 nM | Pseudo-neutralization IC50 [2]: 0.011 µg/mL | Live Virus Neutralization IC50 [3]: 0.032 µg/mL

B15: antibody 477 (antibody, V domains shown)
VH: QVQLVESGGGVVQPGRSLRLSCAASGITFSSYAMHWVRQAPGKGLEWVAVISYDGSDKYHADSVKGRFAISRDNSKNTLYLQMNSLRAEDTAVYYCAKDKGIAVAGTGWIRPDPEYYFDYWGQGTLVTVSS
VL: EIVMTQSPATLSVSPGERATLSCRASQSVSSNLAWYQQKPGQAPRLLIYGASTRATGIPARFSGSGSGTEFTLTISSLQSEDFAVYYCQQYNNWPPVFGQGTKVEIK
median fluorescence intensity, fold over isotype control [4]: 30.7 fold over isotype

B16: anti-SARS-CoV-2 antibody 1037 (antibody, V domains shown)
VH: QITLKESGPTLVKPTQTLTLTCTFSGFSLSTSGVGVGWIRQPPGKALEWLALIYWDDDKRYSPSLKSRLTITKDTSKNQVVLTMTNMDPVDTATYYCAHHTITRINDYWGQGTLVTVSS
VL: QSALTQPASVSGSPGQSITISCTATSSDVGAYNYVSWYQQHPGKAPKLMIYDVSKRPSGVSNRFSGSKSGNTASLTISGLQAEDEADYYCSSYTSSSTVFGGGTKLTVL
Kd [1]: 0.126 nM | Pseudo-neutralization IC50 [2]: 0.025 µg/mL | Live Virus Neutralization IC50 [3]: 0.009 µg/mL

B17: anti-SARS-CoV-2 antibody 1193 (antibody, V domains shown)
VH: EVQLVESGGGLVQPGGSLRLSCAASGFTFSSYYMNWVRQAPGKGLEWVSYISSGSSIIYYADSVKGRFTISRDNAKNSLYLQMNSLRDEDTAVYYCARDSPLRYFDWQLGGGFDYWGQGTLVTVSS
VL: QSALTQPASVSGSPGQSITISCTGTSSDVGGYNYVSWYQQHPGKAPKLMIYDVSNRPSGVSNRFSGSKSGNTASLTISGLQAEDEADYYCSSYTSSSLWVFGGGTKLTVL
Kd [1]: 0.178 nM | Pseudo-neutralization IC50 [2]: 0.69 µg/mL | Live Virus Neutralization IC50 [3]: 0.31 µg/mL

B18: antibody 454 (antibody, V domains shown)
VH: QVQLVQSGAEVKKPGASLKVSCKASGYIFTGYYMHWVRQAPGQGLEWMGWISPNSGGTKYAQKFQGRVTMTRDTSISTAYMELSRLRSDDSAVYYCAREPYYDILTGYYTPRRYLDYWGQGTLVTVSS
VL: QSALTQPASVSGSPGQSITISCTGTSSDVGDYNYVSWYQQHPGKVPKLMIYDVSHRPSGVTNRFSGSKSGNTASLTISGLRAEDEADYYCSSYTSSSTYVFGTGTKVTVL
median fluorescence intensity, fold over isotype control [4]: 29.6 fold over isotype

B19: antibody 470 (antibody, V domains shown)
VH: not shown
VL: QSALTQPASVSGSPGQSITISCTGTSSDVGSYNLVSWYQQHPGKAPKLMIYEVSKRPSGVSNRFSGSKSGNTASLTISGLQAEDEADYYCCSYAGSSTLVFGGGTKLTVL
median fluorescence intensity, fold over isotype control [4]: 20.7 fold over isotype

B20: antibody 476 (antibody, V domains shown)
VH: QVQLVQSGSELKKPGASVKVSCKASGYTFTSYAMNWVRQAPGQGLEWMGWINTNTGNPTYAQGFTGRFVFSLDTSVSTAYLQISSLKAEDTGVYYCARDHELPNSSSWFGHFEYWGQGTLVTVSS
VL: SYELTQPPSVSVSPGQTARITCSGDALPKQYAYWYQQKAGQAPVLVIYKDSERRSGIPERFSGSSSGTTVTLTISGVQAEDEADYYCQSADSSGTSVVFGGGTKLTVL
median fluorescence intensity, fold over isotype control [4]: 18.2 fold over isotype
